From PMC9807187 come the findings set out here.

This assay concerns the target FLAG-tagged METTL3, wild type (UniProt Q8C3P7). Description: co-IP.
UniProt Q8C3P7, sequence (Q8C3P7 whole entry): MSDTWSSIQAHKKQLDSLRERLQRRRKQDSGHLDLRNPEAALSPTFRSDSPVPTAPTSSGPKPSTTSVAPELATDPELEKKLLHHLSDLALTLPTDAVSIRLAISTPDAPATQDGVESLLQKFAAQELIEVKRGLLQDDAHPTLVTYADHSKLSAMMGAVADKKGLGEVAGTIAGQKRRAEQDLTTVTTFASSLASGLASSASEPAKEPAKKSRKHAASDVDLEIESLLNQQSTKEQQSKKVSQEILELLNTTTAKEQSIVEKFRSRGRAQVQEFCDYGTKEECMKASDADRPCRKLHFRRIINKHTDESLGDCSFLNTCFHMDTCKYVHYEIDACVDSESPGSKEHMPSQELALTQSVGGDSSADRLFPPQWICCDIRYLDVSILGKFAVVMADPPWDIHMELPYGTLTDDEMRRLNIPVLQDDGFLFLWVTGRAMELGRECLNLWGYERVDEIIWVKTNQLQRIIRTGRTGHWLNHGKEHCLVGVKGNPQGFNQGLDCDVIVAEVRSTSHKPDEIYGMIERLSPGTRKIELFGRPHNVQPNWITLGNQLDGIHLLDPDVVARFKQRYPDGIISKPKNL

The substance “HA-p53 25,26,53,54 (p53 L25Q,Q26S,F53Q,F54S mutant) (from UniProt P02340 1-390) (natural protein)” displayed a reduction of binding against wild-type p53 of 50%.
